Experimental findings from patent publication US20250177531A1 (FRED HUTCHINSON CANCER CENTER, published 2025) are described below.

Assay [1] has as its target T1, KRAS G12V (same sequence in NRAS G12V and HRAS G12V) peptide on HLA-A*11:01 (human).
T1 peptide: VVGAVGVGK
Nature of the assay: stated without data.

For assay [2], the target named is KRAS G12V 7-16 10mer peptide … presented by HLA-A*11:01 (human). Put plainly: cell-based or functional assay.
Assay [3] has as its target KRAS G12V 8-16 9mer peptide … presented by HLA-A*11:01 (human). Nature of the assay: cell-based or functional assay.
The target of assay [4] is RAB7B peptide … presented by HLA-A*11:01 (human). Nature of the assay: cell-based or functional assay.

B1: TCR 11N6 (TCR, V domains shown)
Valpha: QQGEEDPQALSIQEGENATMNCSYKTSINNLQWYRQNSGRGLVHLILIRSNEREKHSGRLRVTLDTSKKSSSLLITASRAADTASYFCATDPMNTNAGKSTFGDGTTLTVKP
Vbeta: GVAQSPRYKIIEKRQSVAFWCNPISGHATLYWYQQILGQGPKLLIQFQNNGVVDDSQLPKDRFSAERLKGVDSTLKIQPAKLEDSAVYLCASSPYGGSVSYEQYFGPGTRLTVT
Regarding B1, in assay [1], the binding result was “recognises”.

B2: TCR 11N4A (TCR)
TCR alpha: QQKNDDQQVKQNSPSLSVQEGRISILNCDYTNSMFDYFLWYKKYPAEGPTFLISISSIKDKNEDGRFTVFLNKSAKHLSLHIVPSQPGDSAVYFCAASGVSGNTPLVFGKGTRLSVIANIQNPDPAVYQLRDSKSSDKSVCLFTDFDSQTNVSQSKDSDVYITDKCVLDMRSMDFKSNSAVAWSNKSDFACANAFNNSIIPEDTFFPSPESSCDVKLVEKSFETDTNLNFQNLSVIGFRILLLKVAGFNLLMTLRLWSS
TCR beta: GVTQTPRYLIKTRGQQVTLSCSPISGHRSVSWYQQTPGQGLQFLFEYFSETQRNKGNFPGRFSGRQFSNSRSEMNVSTLELGDSALYLCASSVGTVEQYFGPGTRLTVTEDLKNVFPPEVAVFEPSEAEISHTQKATLVCLATGFYPDHVELSWWVNGKEVHSGVCTDPQPLKEQPALNDSRYCLSSRLRVSATFWQNPRNHFRCQVQFYGLSENDEWTQDRAKPVTQIVSAEAWGRADCGFTSESYQQGVLSATILYEILLGKATLYAVLVSALVLMAMVKRKDSRG
Molecule B2 yielded an EC50, CD137 surface expression assay (functional avidity), TCR 11N4A in primary human CD8+ T cells in assay [2] of 18.8 nM. For the same molecule, in assay [3], the EC50, CD137 surface expression assay (functional avidity), TCR 11N4A in primary human CD8+ T cells was determined as 0.0595 nM and the percent of T cells responding (CD137), peptide titration is above 80%.

B3: TCR 11N4A (TCR, V domains shown)
V domain 1: DQQVKQNSPSLSVQEGRISILNCDYTNSMFDYFLWYKKYPAEGPTFLISISSIKDKNEDGRFTVFLNKSAKHLSLHIVPSQPGDSAVYFCAASGVSGNTPLVFGKGTRLSVIA
V domain 2: GVTQTPRYLIKTRGQQVTLSCSPISGHRSVSWYQQTPGQGLQFLFEYFSETQRNKGNFPGRFSGRQFSNSRSEMNVSTLELGDSALYLCASSVGTVEQYFGPGTRLTVTE
In the case of B3, the “EC50, CD137 expression, sort-purified TCR 11N4A-transduced T cells, peptide titration” value in assay [4] is around 35 µg/mL.
